Results published in the RNAGym collection of RNA variant scans (doi:10.1073/pnas.2313332121).
This sample holds only a part of the variants without activity.

B1: TPR 5TU (parent)
chain: GGAUCUUCUCGAUCUAACAAAAAAGACAAAUCUGCCACAAAGCUUGAGAGCAUCUUCGGAUGCAGAGGCGGCAGCCUUCGGUGGCGCGAUAGCGCCAACGUUCUCAACUAUGACACGCAAAACGCGUGCUCCGUUGAAUGGAGUUUAUCAUG

Variants of: B1
Test: polymerase ribozyme fitness, log enrichment relative to wild type (log ratio); higher = more active; in vitro selection for triplet polymerase activity
Summary of the method: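 In triplicate, a single round of in vitro selection was run on each mutant library, PCR-built and transcribed, covering one subunit of a heterodimeric triplet polymerase ribozyme. Frozen incubation at −7 °C followed annealing with a biotinylated primer, partner subunit and triplets, and extended constructs were then gel-excised, streptavidin-captured and taken through RT-PCR. Fitness is the logarithm of genotype enrichment over wild-type enrichment, from inverse-variance-weighted replicate averages of Illumina-sequenced inputs and outputs. […] only genotypes with ≥10 input reads and ≥1 read per output were kept.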

Variant | polymerase ribozyme fitness (log ratio)
GGAUCUUCUCGCUCUAACAAAAAAGAAAAAUCUGCUACAAAGCUUGAGAGCAUCUUCGGAUGCAGAGGCGGGAGCCUUCGGUGGCGCGAUAGCGCCAACGUUCUCAACUAUGACACGAAAAACGCGUGCUCCGUUGAAUGGAGUUUAUCAUG [A12C C27A C36U C72G C118A] | ≤ -4.2
GGAUCUUCUCGCGCUAAGAAGAAAGACAAAUCUGCCACAAAGCUUGAGAGCAUCUUCGGAUGCAGAGGCGGCAGCCUUCGGUGGCGCGAUAGCGCCAACGAUCUCAACUUUGACACGCAUAACGCGUGCUCCGUUCAAUUGAGUUUAUCAUU [A12C U13G C18G A21G U101A A110U A120U G136C G140U G152U] | ≤ -4.2
GGAUCUUCUCGCUCUAACAAAAAAGACAAAUCUGCCACAAAGCUUGAGAGCAUCUUCGGAUACAGAGGCGGCAGCCUUCGGUGGCGCGAUAGCGCCAACGUUCUCAACUAUGACACGCAAAUCGCGUGCUCCGUUGAAUGGAGUUUAUCAUG [A12C G62A A122U] | -0.923
GGAUCUUCUCGCUCUAACAAAAAAGACAAAUCUGUCACAAAGCUUGAGAGCAUCUUCGGAUGCAGAGGCGGCAGCCUUCGGUGGCACGAUAGUGCCAACGUUCUCAACUAUGACACGCAAAACGCGUGCUCCGUUGAAUGGAGUUUAUCAUG [A12C C35U G86A C93U] | -1.43
GGAUCUUCUCGCUUUAACAAAAAAGACAAAUCUGCCACAAAGCUUGAGAGCAUCAUCGGAUGCAGAGGCGGCAGCCUUCGGUGGCGCGAUAGCGCCAGCGUUGUCAACUAUGACACGCAAAACGCGUGCUCCAUUGAAUGGAGUUUAUCAUG [A12C C14U U55A A98G C103G G133A] | ≤ -4.2
GGAUCUUCUCGCUCUAACAAAAAAGACAAAUCUGCCACAAAGCUUGAGAGCAUCUUCGGAUGCAGAGGCGGCAGCCUUCGGUGGUGCGAUAGCGCCAACGUUCUCAACUAUGACACGCAAAACGCGUGCUCCGUUGAAUGGUGUUUAUCAUG [A12C C85U A142U] | -1.48
GGAUCUUCUCGCUCUAACAAAAAAGACAAAUCUGCCACAAAGCUUGAGAGCAUCUUCGGAUGCAGAGGCGGCAGCCUUCGGUGGCGCGAUAGUGCCAACGUUCUCAACUAUGACACGCAAAACGCGUGCUCCGUUGAAUGGAGUUUAUCAUG [A12C C93U] | -2.17
GGAUCUUCUCGCUCUAACAAAAAAGACAAAUCUGCCACAAAGCUUGAGAGCAUCUUCGGAUGCAGAGGCGGCAGCCUUCGAUGGCGCGAUACCGCCAAUGUUCUCAACUAUGACACGCAAAACCCGUGCUCCUUUGAAUGGAGUUUAUCAUG [A12C G81A G92C C99U G124C G133U] | ≤ -4.2
GGAUCUUCUCGCUCUAACAAAAAAGACAAAUCUGCCACAAAGCUUGAGAGCAUCUUCGGAUGCAGAGGCGGCAGCCUUCGGUGGUGCGAUAGCGCCAACGUUCUCAACUAUGACAAGCAAAGCGCGUGCUCCGUUGAAUGGAUUUUAUCAUG [A12C C85U C116A A122G G143U] | ≤ -4.2
GGAUCUUCUCGCUCUAACAAAAAAGACAAAUCUGCCACAAAGCUUGAGAGCAUCUUCGGAUGCAGAGGCGGCAGCCUUCGGUGGCGCGAUAGCGCCAAAGUUCUCAACUAUGACACGCGAAACGCGUGCUCCGUUGAAUGGAGUCUAUCAUG [A12C C99A A119G U145C] | -1.83
GGAUCUUCUCGCUCUAACAAAAAAGACAAAUCUGCCAAAAAGCUUGAGAGCAUCUUCGGAUGCAGAGGCGGCAGCCUUCGGUGGCGCGAUAGUGCCAACGUUCUCAACUAUGACACGCAAAACGCGUGCUCCGUUGAAUGGAGUUUAUCAUG [A12C C38A C93U] | -1.62
GGAUCUUCUCGCUCUAACAAAAAAGAUAAAUCUUCCACAAAGCUUGAGAGCAUCUUCGGAUGUAGAGGCGGCAGCCUUCGGUGGCGCGAUAGAGCCAACGUUCUCAACUAUGACACGCAAAACGCGUGCUCCGUUGAAUGGAGUUUAUCAUG [A12C C27U G34U C63U C93A] | -4.1
GGAUCUUCUCGCUCUAAGAAAAAAGACAAAUCUGCCACAUAGCUUGAGAGCAUCUUCGGAUGCAGAGGCGGCAGCCUUCGGUGGCGCGAUAGCGCCAACGUUCUCAACUAUGACACGCAAAAUGCGUGCUCCGUUUAAUGGAGUUUAUCAUG [A12C C18G A40U C123U G136U] | -3.09
GGAUCUUCUCGCUCUAACAAAAAAGACAAAUCUGCCACAAAGCUUGAGACCAUCUUCGGAUGCAGCGGCGGCAGCCUUGGGUGGCGCGAUAGUGUCAACGUUCUCAACUAUGACACGCAAAACGCGUGCUCCGUUGAACGGAGUUUUUCAUG [A12C G50C A66C C79G C93U C95U U139C A147U] | ≤ -4.2
GGAUCUUCUCGCUCUAACAAAAAAGACAAAUCUGCCACAAAGCUUGAGAGCAUCUUCCGAUGCAGAGGCGGCAGCCUUCGGUGGCGCGAUAGCGCGAACGUUCUCAACUAUGACACGCAAAACGCGUGCUCCGUUGAAUGGAGUUUAUCAUG [A12C G58C C96G] | -1.07
GGAUCUUCUCGCUCUAACAAAAAAGACAAAUCUGCCAUAAAGCUUGAGAGCAUUUUCGGAUGCAGAGGCGGCAGCUGUCGGUGACGCGAUAGCGCCAACGUUCUCAACUAUGACACGCAAAACGCGAGCUCCGUUGAUUGGAGUUUAUCAUG [A12C C38U C54U C76U U77G G84A U127A A138U] | ≤ -4.2
GGAUCUUCUCGCUCUAACAAAAAAGACAAAUCUGCCACAAAGCUUGAGAGCAUCUUCGGAUGCAGAGGCGGCAGCCUUCGGUGGCGCGAUAGCUCCAACGUUCUCAACUAUGACACGCAAAACGCGUGCUCCGUUGAAUGGAGUUUAUCGUG [A12C G94U A150G] | -2.61
GGAUCUUCUCGCUCUAACAAAAAAGACAAAUGUGCCACAAAGCUUGAGAGCAUCUUCGGAUGCAGAGGCGGCAGCCUUCGGUGUCGCGAUAGCGCCAACGUUCUCAACUAUGACACGCAAAACGCGUGCUCCGUUGAAUGGAGUUUAUCAUG [A12C C32G G84U] | ≤ -4.2
GGAUCUUCUCGCUCUAACAAAAAAGACAAAUCUGCCACAAAGCUUGAGAGCAUCUUCGGAUGCAGAGGCGGCAGCCUUCGGUGGGGCGAUAGCGCCAACGUUCUCAACUAUGACACGCAAACCGCGUGCUCCGUUGAAUGGAGUUUAUCAUG [A12C C85G A122C] | -2.14
